Residue numbers refer to the chain shown, from its start.
T1: human CD19 exon1-3-his protein (human, UniProt P15391 20-186, limits assumed)
T1 construct: made in HEK293E cells; also called membrane-distal end; not shown: His tag
T1 sequence (looked up): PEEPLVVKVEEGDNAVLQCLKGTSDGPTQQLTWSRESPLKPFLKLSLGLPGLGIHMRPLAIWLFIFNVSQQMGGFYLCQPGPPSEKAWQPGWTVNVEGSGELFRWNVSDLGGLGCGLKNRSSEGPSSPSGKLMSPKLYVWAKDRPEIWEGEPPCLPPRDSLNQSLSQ

T2: murine CD19 protein (murine, UniProt P25918 17-287, limits assumed)
T2 construct: bought protein; also called commercial murine CD19
T2 sequence (looked up): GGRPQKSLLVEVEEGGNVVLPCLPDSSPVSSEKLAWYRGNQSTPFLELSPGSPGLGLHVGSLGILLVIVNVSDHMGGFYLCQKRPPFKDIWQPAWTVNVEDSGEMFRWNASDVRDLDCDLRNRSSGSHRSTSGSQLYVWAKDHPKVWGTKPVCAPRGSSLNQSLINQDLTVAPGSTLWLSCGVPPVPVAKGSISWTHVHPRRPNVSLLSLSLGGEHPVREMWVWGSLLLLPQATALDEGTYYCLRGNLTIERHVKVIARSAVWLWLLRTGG

T3: Human CD19-his protein (human, UniProt P15391 20-291)
T3 construct: bought protein; also called human CD19 protein; recombinant human CD19-His; not shown: His tag
T3 sequence (looked up): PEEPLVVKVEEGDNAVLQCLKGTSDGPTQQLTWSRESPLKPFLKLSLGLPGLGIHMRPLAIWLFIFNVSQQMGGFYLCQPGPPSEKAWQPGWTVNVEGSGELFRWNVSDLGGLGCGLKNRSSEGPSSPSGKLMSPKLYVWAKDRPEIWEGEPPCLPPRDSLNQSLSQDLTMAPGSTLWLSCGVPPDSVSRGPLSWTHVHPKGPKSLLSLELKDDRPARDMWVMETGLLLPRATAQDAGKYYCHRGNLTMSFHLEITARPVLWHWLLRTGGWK

B1: F6.12.12 (antibody, human IgG1, V domains shown)
VH: DVQLQESGPGLVKPSQSLSLTCSVTGYSITSGYYWIWIRQFPGNKLEWMGYISYDASNKYKPSLKNRISITRDTSKNQFFLKLNSVTAEDTATYFCAREDLRGYFDVWGTGTSVTVSS
VL: DIVLTQSPASLAVSLGRRATISCRASQSVSTSGFSYMHWYQQKPGQPPNLLIKYASILQSGVPARFSGSGSGTDFILNIHPVEDVDTATYYCQHSWGIPFTFGSGTKLEIK
notes: human-murine chimeric antibody, human IgG1
B2: F3.81.2 (antibody, human IgG1, V domains shown)
VH: QVQLQQPGAELVMPGASVKLSCKASAYTFTNYWMHWVKQRPGHGLEWIGEIDPSDSYTDYNQNFKAKATLTVDKSSSTAYMQLSSLTSEDSAVYYCARLMGRYFDVWGTGTTVTVSS
VL: DIVMTQSHKFMSTSVGDRVSITCKASQDVSAAVAWYQQKPGQSPKLLINSASYRYTGVPDRFTGSGSGTDFTFTISSVQAEDLAVYYCQQHYSTPLTFGAGTKLELR
notes: as for B1
B3: F3.126.15 (antibody, human IgG1, V domains shown)
VH: QVQLQQPGAELVMPGASVKLSCKASGYTFTSYWMHWVKQRPGQGLEWIGEIDPSDSYTTYNQNFKGKATLTVDISTSTAYIQLSNLTSEDSAVYYCARLTGNYIHYWGQGTTLTVSS
VL: B2 VL with A31P, K39R, S43C, N49F, A51S, Y55S, T94L, R107K
notes: as for B1
B4: F3.114.12 (antibody, human IgG1, V domains shown)
VH: DVQLQESGPGLVKPSQSLSLTCSVTGYSITSGYDWNWIRQFPGNKLEWMGYISYDGKNNYNPSLRNRISITRDTSKNQFFLKLNSVTTEDTATYYCARRDLRGYFDVWGTGTTVTVSS
VL: DIVLTQSPATLSVTPGDRVSLSCRASQSISNYLHWYQQKSHESPRLLIKYASLSISGIPSRFSGSGSGTDFTLSINSVETEDFGVYFCQQSNSWPLTFGAGTKLELK
notes: as for B1
B5: F3.13.2 (antibody, human IgG1, V domains shown)
VH: DVQLQESGPGLMKPSQSLSLTCSVTGYSITSGYYWNWIRQFPGNKLEWMGYISYDGSNNYNPSLKNRFSITRDTSKNQFFLKLNSVTTEDTATYYCARRKLTGGPYFDYWGQGTTLTVSS
VL: DIVLTQSPASLAVTLGQRATISCRASESVSFHGFHIMHWYQQKPGQPPKLLIYAASHLVSGVPDRFSGSGSETDFTLNIHPVEEEDAAAYFCQQSVEDPWTFGGGTKLEIK
notes: as for B1
B6: F3.3.10 (antibody, human IgG1, V domains shown)
VH: DVQLQESGPGLAKLSQSLSLTCSVTGYSITSGYYWNWIRQFPGNKLEWMGHISYDGNNNYNPSLKNRISITRDTSKNQFFLKLNSVTTEDTATYYCARENYSNYYFDYWGQGTTLTVSS
VL: DIVLTQSPASLAVSLGQRATISCRASQSVSKSSYTYIHWYQQKPGQPPKLLIKYASILQSGVPARFSGSGSGTDFTLNFHPVEEEDTATYYCQHSWEIPYTFGGGTKLEIK
notes: as for B1
B7: F3.83.9 (antibody, human IgG1, V domains shown)
VH: B6 VH with A12V, L14P, H51Y, N57G, Y95F, N100D, Y104W, Y108V, Q111T, L115V
VL: B6 VL with T35S, I37M, P47S, Q59K, F79I, Y100W
notes: as for B1
B8: F3.5.1 (antibody, human IgG1, V domains shown)
VH: QAQLQQSGPELVKPGASVKISCKASGYAFSGSWMNWVQQRPGKGLEWIGRIYPGDGDTYYNGKFKDKAILTADKSSSTAYMQLSSLTSEDSAVYFCAQLRYRYVMDYWGQGTSVTVSS
VL: DIVLTQSPASLAVSLGQRATISCRASESVSIHGSHLMHWYQQKPGQPPRLLIYAASNLESGVPARFSGSGSETDFTLNIHPVEEEDAATYFCQQGIKDPYTFGGGTKLEIK
notes: as for B1
B9: F3.40.14 (antibody, human IgG1, V domains shown)
VH: B8 VH with N61S, K74T, Y101S, T112A
VL: B8 VL with S34T, K97D
notes: as for B1

Each binder was assayed against T1, human CD19 exon1-3-his protein (assay: ELISA, coated at 2 ug/mL).
Experimental: (§1) Human CD19-his protein (purchased from ACROBiosystems, catalog number: CD9-H52H2) was diluted with PBS to a final concentration of 4 μg/mL, and then added to a 96-well ELISA plate at 100 μl/well. The plate was sealed with a plastic film and incubated overnight at 4° C., the plate was washed 2 times with PBS the next day, and then a blocking solution [PBS+2% (w/w) BSA] was added for blocking at room temperature for 2 h. The blocking solution was poured off, and 100 nM gradiently diluted CD19 chimeric antibody or control antibody was added at 50 μl/well. After incubation at 37° C. for 2 h, the plate was washed 3 times with PBS. […] TMB substrate was added at 50 μl/well, and incubated at room temperature for 10 min, and then a stop solution (1.0 N HCl) was added at 50 μl/well. The OD450 nm values were read by an ELISA microplate reader (Multimode Plate Reader, EnSight, purchased from Perkin Elmer).
CD19 protein contains 4 exons in the extracellular region, in which exons 1-3 are located at the membrane-distal end and exon 4 is located at the membrane-proximal end. […] To identify the distribution of antigen binding epitopes of the chimeric antibodies, human CD19 exon 1-3-His (membrane-distal end) was used to coat at 2 μg/mL according to the ELISA method in example 5.1.

| binding result | Binder |
| --- | --- |
| no binding | B1 |
| no binding | B2 |
| no binding | B3 |
| no binding | B4 |
| no binding | B5 |
| no binding | B6 |
| no binding | B7 |
| no binding | B8 |
| no binding | B9 |

These binders were tested against T2, murine CD19 protein (assay: ELISA, coated murine CD19).
Experimental: as §1
In order to detect the species cross-binding activity of the chimeric antibodies, an ELISA plate was coated with commercial murine CD19 (ACROBiosystems, catalog number: 50510-M08H) and monkey CD19 (ACROBiosystems, catalog number: 90051-C08H), respectively, and the ELISA detection was performed according to the method in example 5.1.

| binding result | Binder |
| --- | --- |
| no binding | B1 |
| no binding | B2 |
| no binding | B3 |
| no binding | B4 |
| no binding | B5 |
| no binding | B6 |
| no binding | B7 |
| no binding | B8 |
| no binding | B9 |

What follows are binders tested against T3, Human CD19-his protein (assay: ELISA, antibody at 10 nM).
Experimental: as §1

| OD450 | Binder |
| --- | --- |
| 1.08 | B1 |
| 1.05 | B2 |
| 0.46 | B3 |
| 0.46 | B4 |
| 0.29 | B5 |
| 0.42 | B6 |
| 0.6 | B7 |
| 1.75 | B8 |
| 1.01 | B9 |

These binders were tested against T3, Human CD19-his protein (assay: ELISA, antibody at 100 nM).
Experimental: as §1

| OD450 | Binder |
| --- | --- |
| 1.32 | B1 |
| 1.4 | B2 |
| 0.7 | B3 |
| 0.61 | B4 |
| 0.45 | B5 |
| 0.59 | B6 |
| 0.94 | B7 |
| 2.01 | B8 |
| 1.19 | B9 |

The binders below were run against T3, Human CD19-his protein (assay: ELISA, antibody at 0.01 nM).
Experimental: as §1

| OD450 | Binder |
| --- | --- |
| 0.1 | B1 |
| 0.07 | B2 |
| 0.05 | B3 |
| 0.05 | B4 |
| 0.05 | B5 |
| 0.05 | B6 |
| 0.06 | B7 |
| 0.11 | B8 |
| 0.06 | B9 |

The binders below were run against T3, Human CD19-his protein (assay: ELISA, antibody at 0.10 nM).
Experimental: as §1

| OD450 | Binder |
| --- | --- |
| 0.39 | B1 |
| 0.24 | B2 |
| 0.07 | B3 |
| 0.08 | B4 |
| 0.06 | B5 |
| 0.08 | B6 |
| 0.11 | B7 |
| 0.5 | B8 |
| 0.11 | B9 |

These binders were tested against T3, Human CD19-his protein (assay: ELISA, antibody at 1.00 nM).
Experimental: as §1

| OD450 | Binder |
| --- | --- |
| 0.71 | B1 |
| 0.74 | B2 |
| 0.2 | B3 |
| 0.24 | B4 |
| 0.18 | B5 |
| 0.21 | B6 |
| 0.36 | B7 |
| 1.38 | B8 |
| 0.42 | B9 |

What follows are binders tested against T3, Human CD19-his protein (assay: ELISA, antibody at 0.001 nM).
Experimental: as §1

| OD450 | Binder |
| --- | --- |
| 0.06 | B1 |
| 0.05 | B2 |
| 0.05 | B3 |
| 0.05 | B4 |
| 0.05 | B5 |
| 0.05 | B6 |
| 0.05 | B7 |
| 0.06 | B8 |
| 0.05 | B9 |

These binders were tested against T3, Human CD19-his protein (assay: ELISA, antibody at 0.0001 nM).
Experimental: as §1

| OD450 | Binder |
| --- | --- |
| 0.05 | B1 |
| 0.05 | B2 |
| 0.05 | B3 |
| 0.05 | B4 |
| 0.05 | B5 |
| 0.05 | B6 |
| 0.05 | B7 |
| 0.05 | B8 |
| 0.05 | B9 |

Source: patent publication US20250042994A1 (HAINAN SIMCERE ZAIMING PHARMACEUTICAL, published 2025)
